Data on 2 substances can be found in patent US20100330076A1.

pKd: −log10 of the molar value.

The target of experiment [1] is FcγRI (human) (UniProt P12314). Nature of the experiment: BIACore SPR. Background: Surface plasmon resonance follows binding to a sensor surface in real time, without labels.
The target of experiment [2] is FcγRIa (human) (UniProt P12314). As to the kind of experiment: BIACore SPR.
FcγRIa (human), sequence (P12314 16-292): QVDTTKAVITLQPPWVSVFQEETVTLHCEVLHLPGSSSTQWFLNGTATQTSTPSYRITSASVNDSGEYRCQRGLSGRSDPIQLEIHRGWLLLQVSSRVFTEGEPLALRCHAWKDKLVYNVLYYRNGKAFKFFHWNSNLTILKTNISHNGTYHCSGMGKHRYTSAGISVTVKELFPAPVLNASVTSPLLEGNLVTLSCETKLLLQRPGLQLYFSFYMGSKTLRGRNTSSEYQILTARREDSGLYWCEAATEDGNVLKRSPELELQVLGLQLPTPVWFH

FcγRI (human), sequence (P12314 16-292): as above

On to Aglycosylated wild type Trastuzumab, for which the pKd in experiment [1] is 6.42.

On to Aglycosylated wild type trastuzumab, for which, in experiment [2], the negative-log Kd (pKd) was 6.42.

One may read the pKd as −log10 of the Kd, conventionally taken in molar units. A high value points to a low Kd.
